In patent US20250129165A1 (IMCHECK THERAPEUTICS, published 2025):

Legend:
[1] = biological target: human BTN3A1 antigen (Sino Biological cat. no. 15973-H08H) (human, UniProt O00481 30-254); test: SPR, Biacore T200 multi-cycle kinetics; antibody captured on Protein A, BTN3A1 as analyte
[2] = biological target: T1, cynomolgus BTN3A as expressed on cynomolgus PBMCs (cynomolgus); test: flow cytometry on cynomolgus PBMCs
T1 construct: whole, on cells; also called Cyno PBMC

Sequence of human BTN3A1 antigen (Sino Biological cat. no. 15973-H08H) (O00481 30-254 limits assumed): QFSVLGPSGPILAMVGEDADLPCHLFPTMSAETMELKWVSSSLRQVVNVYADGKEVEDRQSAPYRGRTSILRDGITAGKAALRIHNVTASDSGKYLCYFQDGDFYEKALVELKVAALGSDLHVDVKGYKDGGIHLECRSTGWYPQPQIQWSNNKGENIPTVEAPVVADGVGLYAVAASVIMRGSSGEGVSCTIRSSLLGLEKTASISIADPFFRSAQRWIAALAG

B1: mAb 3, humanized form of mAb 20.1 (antibody, human IgG1, kappa, V domains shown)
VH: QVQLVQSGAEVKKPGASVKVSCKASGYTFTRYYLYWVKQRPGQGLEWIGEINPNNGGTKFNEKFKSRATMTVDKSTRTTYMELSSLRSEDTAVYYCSREDDYDGTPDAMDYWGQGTLVTVSS
VL: DIQMTQSPSSLSASVGDRVTITCHASQNINLWLSWYQQKPGKAPKLLIYRASNLHTGVPSRFSGSGSATDFTFTISSLQPEDIATYYCQQGHSYPYTFGGGTKVDIKR
notes: also called 20.1 Humanized mAb 3; humanized mAb 20.1
[1]
  Kd: 0.319 nM
[2]
  EC50: 5.74 µg/mL
